The values that follow come from patent publication US20210163540, “POLYPEPTIDES SELF-ASSEMBLING INTO NANOPARTICLES” (ETH ZÜRICH, published 2021).

One data set addresses T1, OTR501 (Artificial) (UniProt Q9XDM8).
T1 sequence: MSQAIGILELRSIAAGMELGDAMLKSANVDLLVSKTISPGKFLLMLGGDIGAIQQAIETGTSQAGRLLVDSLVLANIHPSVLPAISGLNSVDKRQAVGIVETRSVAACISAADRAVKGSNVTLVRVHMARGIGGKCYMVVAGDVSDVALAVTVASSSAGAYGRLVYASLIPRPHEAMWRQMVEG
To be noted: fluorescence quenching kinetics koff/kon.

The next data set has as its target T2, OTR502 (Artificial) (UniProt Q9XDM8).
T2 sequence: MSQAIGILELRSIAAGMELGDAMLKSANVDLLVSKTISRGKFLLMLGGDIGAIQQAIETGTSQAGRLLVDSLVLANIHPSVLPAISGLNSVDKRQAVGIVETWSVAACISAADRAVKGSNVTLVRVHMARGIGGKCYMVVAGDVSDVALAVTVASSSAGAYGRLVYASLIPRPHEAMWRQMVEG
Conditions: fluorescence quenching kinetics koff/kon.

In another data set the target is T3, OP (Artificial) (UniProt Q9XDM8).
T3 sequence: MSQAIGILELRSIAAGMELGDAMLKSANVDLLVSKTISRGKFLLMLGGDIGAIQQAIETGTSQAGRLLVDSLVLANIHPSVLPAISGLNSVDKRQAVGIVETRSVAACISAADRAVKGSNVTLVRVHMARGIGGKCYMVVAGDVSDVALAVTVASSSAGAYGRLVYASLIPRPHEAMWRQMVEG
Conditions: fluorescence quenching kinetics koff/kon.

In a further data set the target is T4, OTR503 (Artificial) (UniProt Q9XDM8).
T4 sequence: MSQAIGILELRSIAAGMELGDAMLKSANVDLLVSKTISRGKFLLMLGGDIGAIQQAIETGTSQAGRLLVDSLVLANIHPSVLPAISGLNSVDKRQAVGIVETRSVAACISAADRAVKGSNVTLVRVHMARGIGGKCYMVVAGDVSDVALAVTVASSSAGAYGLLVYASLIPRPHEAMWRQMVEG
To be noted: fluorescence quenching kinetics koff/kon.

Data set [1] concerns the target T5, OP (Artificial, UniProt Q9XDM8 SEQ:1-184).
T5 chain: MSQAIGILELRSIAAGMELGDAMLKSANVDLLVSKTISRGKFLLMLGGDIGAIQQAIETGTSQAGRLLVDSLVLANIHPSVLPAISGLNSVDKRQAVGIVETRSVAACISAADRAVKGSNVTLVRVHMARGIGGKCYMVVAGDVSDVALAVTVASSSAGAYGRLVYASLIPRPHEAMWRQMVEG
The data set is described as follows: EMSA; 2:1 ssDNA to capsid. Conditions: tags: C-terminal His6; chain copies: 24 (self-assembled cage). Background: In EMSA bound probe runs differently from free probe, usually more slowly.

In another data set the target is T6, O3-33 (Artificial, UniProt Q9XDM8 SEQ:1-184, R11T,R39P,R66E,R103W,R130F,R163L).
T6 sequence: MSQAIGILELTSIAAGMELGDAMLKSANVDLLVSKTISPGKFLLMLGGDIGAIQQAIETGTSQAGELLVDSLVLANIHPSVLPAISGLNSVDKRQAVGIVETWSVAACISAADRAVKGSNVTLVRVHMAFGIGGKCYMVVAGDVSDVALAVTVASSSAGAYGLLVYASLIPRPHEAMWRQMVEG
The experiment in a line: EMSA; PBS, room temp; also no binding by fluorescence quenching. Conditions: tags: C-terminal His6; pET29b(+)-O3-33 (David Baker), PDB 3VCD; chain copies: 24 (self-assembled cage); label: Atto488 5'.

The next data set concerns the target T7, OTR502 (Artificial, UniProt Q9XDM8 SEQ:1-184).
T7 chain: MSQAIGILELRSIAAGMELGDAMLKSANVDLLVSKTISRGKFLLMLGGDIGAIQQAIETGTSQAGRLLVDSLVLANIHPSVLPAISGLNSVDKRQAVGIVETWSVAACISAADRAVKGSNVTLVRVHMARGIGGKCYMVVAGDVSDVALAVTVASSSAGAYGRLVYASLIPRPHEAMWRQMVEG
The data set is described as follows: fluorescence quenching kinetics koff/kon, PBS, room temp. Conditions: tags: C-terminal His6; chain copies: 24 (inferred); label: Atto488 5'.

For another data set, the target named is T8, OTR402 (Artificial, UniProt Q9XDM8 SEQ:1-184).
T8 chain: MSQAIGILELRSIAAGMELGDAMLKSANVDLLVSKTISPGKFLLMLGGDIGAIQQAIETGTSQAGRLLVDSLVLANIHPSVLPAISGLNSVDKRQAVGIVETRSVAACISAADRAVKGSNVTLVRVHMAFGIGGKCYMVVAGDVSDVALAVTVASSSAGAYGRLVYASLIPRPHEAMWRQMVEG
The data set is described as above. To be noted: tags: C-terminal His6; chain copies: 24 (inferred); label: Atto488 5'.

A further data set has as its target T9, OTR503 (Artificial, UniProt Q9XDM8 SEQ:1-184).
T9 chain: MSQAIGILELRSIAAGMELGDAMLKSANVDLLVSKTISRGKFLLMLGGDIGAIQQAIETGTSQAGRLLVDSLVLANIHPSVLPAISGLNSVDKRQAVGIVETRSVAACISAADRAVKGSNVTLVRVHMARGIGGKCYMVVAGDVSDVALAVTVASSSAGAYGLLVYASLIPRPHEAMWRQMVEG
The data set is described as above. Conditions: tags: C-terminal His6; chain copies: 24 (inferred); label: Atto488 5'.

For another data set, the target named is T10, OTR401 (Artificial, UniProt Q9XDM8 SEQ:1-184).
T10 chain: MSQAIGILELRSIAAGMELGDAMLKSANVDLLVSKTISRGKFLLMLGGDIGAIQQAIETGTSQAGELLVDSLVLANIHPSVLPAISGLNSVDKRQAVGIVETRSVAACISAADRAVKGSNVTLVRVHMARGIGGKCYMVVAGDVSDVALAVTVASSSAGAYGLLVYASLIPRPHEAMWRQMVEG
The data set is described as above. Conditions: tags: C-terminal His6; chain copies: 24 (inferred); label: Atto488 5'.

For a further data set, the target named is T11, OTR302 (Artificial, UniProt Q9XDM8 SEQ:1-184).
T11 chain: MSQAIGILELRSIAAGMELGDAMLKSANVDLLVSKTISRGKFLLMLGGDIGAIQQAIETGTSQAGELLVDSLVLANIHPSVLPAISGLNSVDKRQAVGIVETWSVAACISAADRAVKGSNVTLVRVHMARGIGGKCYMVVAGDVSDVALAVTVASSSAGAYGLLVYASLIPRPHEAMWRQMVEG
Described as above. To be noted: tags: C-terminal His tag; chain copies: 24 (inferred); label: Atto488 5'.

The next data set has as its target T12, OTR501 (Artificial, UniProt Q9XDM8 SEQ:1-184).
T12 chain: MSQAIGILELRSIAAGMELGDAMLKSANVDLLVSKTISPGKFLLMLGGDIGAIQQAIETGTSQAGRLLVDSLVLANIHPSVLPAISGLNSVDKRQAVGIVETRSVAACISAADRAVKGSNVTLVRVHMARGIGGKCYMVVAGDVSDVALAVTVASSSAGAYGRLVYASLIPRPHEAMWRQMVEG
Described as above. To be noted: tags: C-terminal His6; chain copies: 24 (inferred); label: Atto488 5'.

Another data set has as its target T13, OTR301 (Artificial, UniProt Q9XDM8 SEQ:1-184).
T13 chain: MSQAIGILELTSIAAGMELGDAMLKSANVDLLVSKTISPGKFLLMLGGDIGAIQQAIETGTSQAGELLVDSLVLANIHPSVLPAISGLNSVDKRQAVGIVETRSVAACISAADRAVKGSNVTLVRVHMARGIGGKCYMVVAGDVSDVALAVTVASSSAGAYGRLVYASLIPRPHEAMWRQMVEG
The data set is described as above. To be noted: tags: C-terminal His6; chain copies: 24 (inferred); label: Atto488 5'.

A further data set deals with T14, OTR101 (Artificial, UniProt Q9XDM8 SEQ:1-184).
T14 chain: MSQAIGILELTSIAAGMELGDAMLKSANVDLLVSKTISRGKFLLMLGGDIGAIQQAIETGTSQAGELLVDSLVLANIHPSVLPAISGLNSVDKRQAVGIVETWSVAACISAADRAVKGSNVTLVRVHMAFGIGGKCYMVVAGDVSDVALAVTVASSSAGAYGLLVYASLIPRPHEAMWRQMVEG
The data set is described as follows: EMSA; also no binding by fluorescence quenching. Conditions: tags: C-terminal His6; chain copies: 24 (inferred); label: Atto488 5'.

The target of the next data set is T15, OTR201 (Artificial, UniProt Q9XDM8 SEQ:1-184).
T15 chain: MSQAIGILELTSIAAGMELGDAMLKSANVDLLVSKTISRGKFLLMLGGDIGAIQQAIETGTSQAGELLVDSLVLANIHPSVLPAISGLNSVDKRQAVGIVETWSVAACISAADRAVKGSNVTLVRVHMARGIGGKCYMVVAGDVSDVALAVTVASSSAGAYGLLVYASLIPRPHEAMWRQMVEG
The experiment in a line: EMSA; also no binding by fluorescence quenching. Conditions: tags: C-terminal His6; chain copies: 24 (inferred); label: Atto488 5'.

For a further data set, the target named is T16, OTR202 (Artificial, UniProt Q9XDM8 SEQ:1-184).
T16 chain: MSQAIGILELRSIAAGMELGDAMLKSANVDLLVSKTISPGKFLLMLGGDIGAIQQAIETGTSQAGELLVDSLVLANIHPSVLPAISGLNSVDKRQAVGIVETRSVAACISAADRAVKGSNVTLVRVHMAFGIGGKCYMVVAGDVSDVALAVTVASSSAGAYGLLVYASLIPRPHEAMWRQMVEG
The experiment in a line: EMSA; also no binding by fluorescence quenching. Conditions: tags: C-terminal His6; chain copies: 24 (inferred); label: Atto488 5'.

The target in the next data set is T17, OTR203 (Artificial, UniProt Q9XDM8 SEQ:1-184).
T17 chain: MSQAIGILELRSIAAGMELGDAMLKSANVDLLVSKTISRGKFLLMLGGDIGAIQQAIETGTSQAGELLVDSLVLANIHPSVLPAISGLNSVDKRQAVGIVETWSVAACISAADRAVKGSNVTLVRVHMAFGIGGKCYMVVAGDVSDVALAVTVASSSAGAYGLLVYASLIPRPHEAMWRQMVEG
The experiment in a line: EMSA; also no binding by fluorescence quenching. Conditions: tags: C-terminal His6; chain copies: 24 (inferred); label: Atto488 5'.

For data set [2], the target named is T5, OP. The data set is described as follows: fluorescence quenching kinetics koff/kon, PBS, room temp; p321 gives (2.4±0.3)e-10. Conditions: tags: C-terminal His6; chain copies: 24 (self-assembled cage); label: Atto488 5'.

As for hpDNA (Atto488-hairpin DNA), the Kd (usually the constant that tells how readily two partners part at equilibrium) in the data set with OTR501 (Artificial) was 0.39 nM; with OTR502 (Artificial) it was 0.684 nM; with OP (Artificial) it was 1.21 nM; with OTR503 (Artificial), 0.184 nM.
In the case of GCGATTCAGCAGGCGATTGAAACC (ssDNA) [ssDNA5], the binding result with OP [1] is listed as “binds”.
Same read-out and setting: then GGTTTCAATCGCCTGCTGAATCGC (ssDNA) [ssDNA7], with “binds”; and GTGCTCGAGACCTTCCACCATC (ssDNA) [ssDNA3], with “binds”.
On the same count and under the same terms, then CCTGGTGCGTGTGCACATGG (ssDNA) [ssDNA2], with “binds”; and GAAGGAGATATACATATGAGCCAGGC (ssDNA) [ssDNA9], with “binds”.
For TTAATTAAAGACTTCAAGCGG (ssDNA) [Atto488-ssDNA (A488-DNA)], the binding result with O3-33, with OTR101, with OTR201, in the data set with OTR202 and with OTR203 was “no binding” each time. In addition, the Kd with OTR502 amounted to 0.289 nM; with OTR402, 0.248 nM; in the data set with OTR503, 0.609 nM; with OTR401 it was 16.1 nM; with OTR302, 8.59 nM; in the data set with OTR501, 0.13 nM. In addition, the Kd in the data set with OTR301 came to 2.12 nM; with OP [2] it was 0.242 nM.
